According to paper PMC4086275, “Cryo-EM structure of the Plasmodium falciparum 80S ribosome bound to the anti-protozoan drug emetine” (eLife, 2014):

Target: T1, eL8, ribosomal protein of the Pf60S subunit (P. falciparum (3D7 strain), UniProt Q8ILL2 1-283)
T1 construct: eL8 of the P. falciparum 3D7 cytoplasmic ribosome; total number of residues 283; built residues 40-46, 54-131, 147-283; extensions compared to human 11-24 and 279-283; Native protein as part of the whole 80S ribosome; also called Q8ILL2_PLAF7; PF3D7_1424400; source: endogenous, in Pf80S ribosomes purified from P. falciparum 3D7 parasites (sucrose cushion, 10-40% sucrose gradient)
T1 sequence (looked up): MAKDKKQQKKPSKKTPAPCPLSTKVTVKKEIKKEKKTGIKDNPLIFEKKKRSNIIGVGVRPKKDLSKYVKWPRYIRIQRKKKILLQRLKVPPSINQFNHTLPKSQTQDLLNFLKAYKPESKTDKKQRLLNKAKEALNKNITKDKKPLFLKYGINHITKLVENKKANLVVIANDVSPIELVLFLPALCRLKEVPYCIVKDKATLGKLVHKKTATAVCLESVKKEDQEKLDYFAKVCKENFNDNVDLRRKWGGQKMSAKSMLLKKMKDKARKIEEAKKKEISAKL
Experiment: cryo-EM structure; native Pf80S ribosome purified from parasites, 160 nM, incubated with 1 mM emetine for 15 min at 25°C in 20 mM Hepes pH 7.4, 40 mM KCH3COO, 10 mM NH4CH3COO, 10 mM Mg(CH3COO)2, 5 mM 2-mercaptoethanol; 3.2 Å overall; the two proteins are members of the co-purified ribosome
Details: both partners purified

B1: eS1, ribosomal protein of the Pf40S subunit (natural protein, P. falciparum (3D7 strain), UniProt O97313 1-262, looked up)
chain: MAVGKNKRTSKGKKGGKKKVTDVFTKKEWYDLKAPKMFLVRNFGKTLVTKTIGKKLATDSLKGRIYEVNLADLNNDEDQAHKKIKLSCDHIINRDCYTDFCGLSITRDKLCSLIRKGYTLIEGHTDVKTLDNYHLRMFCIAFTKKRQNQTKSTCYAQTSQIKKIRKKMVDIMTAEASKVLLKDLVKKFIPESIGKEIEKQCKKIYPLQNVLIRKVKILKRPKLDISKLMELHTDPKEESGKNVNALPESKEATNILTAELKH
notes: eS1 of the P. falciparum 3D7 cytoplasmic ribosome; total number of residues 262; built residues 24-233; extension compared to human 245-262; Native protein as part of the whole 80S ribosome; also called PF3D7_0322900; source: endogenous, in Pf80S ribosomes purified from P. falciparum 3D7 parasites (sucrose cushion, 10-40% sucrose gradient)
B1: binds.
